For the assay, the target named is ACE-2–GFP, secreted form of angiotensin converting enzyme-2 fused to green fluorescent protein (UniProt Q9BYF1). Put plainly: SPR; format not told in the text (Supplementary Fig. S2). For orientation: SPR reads the build-up and loss of mass on a sensor chip optically.
ACE-2–GFP, secreted form of angiotensin converting enzyme-2 fused to green fluorescent protein, sequence (Q9BYF1 18-740): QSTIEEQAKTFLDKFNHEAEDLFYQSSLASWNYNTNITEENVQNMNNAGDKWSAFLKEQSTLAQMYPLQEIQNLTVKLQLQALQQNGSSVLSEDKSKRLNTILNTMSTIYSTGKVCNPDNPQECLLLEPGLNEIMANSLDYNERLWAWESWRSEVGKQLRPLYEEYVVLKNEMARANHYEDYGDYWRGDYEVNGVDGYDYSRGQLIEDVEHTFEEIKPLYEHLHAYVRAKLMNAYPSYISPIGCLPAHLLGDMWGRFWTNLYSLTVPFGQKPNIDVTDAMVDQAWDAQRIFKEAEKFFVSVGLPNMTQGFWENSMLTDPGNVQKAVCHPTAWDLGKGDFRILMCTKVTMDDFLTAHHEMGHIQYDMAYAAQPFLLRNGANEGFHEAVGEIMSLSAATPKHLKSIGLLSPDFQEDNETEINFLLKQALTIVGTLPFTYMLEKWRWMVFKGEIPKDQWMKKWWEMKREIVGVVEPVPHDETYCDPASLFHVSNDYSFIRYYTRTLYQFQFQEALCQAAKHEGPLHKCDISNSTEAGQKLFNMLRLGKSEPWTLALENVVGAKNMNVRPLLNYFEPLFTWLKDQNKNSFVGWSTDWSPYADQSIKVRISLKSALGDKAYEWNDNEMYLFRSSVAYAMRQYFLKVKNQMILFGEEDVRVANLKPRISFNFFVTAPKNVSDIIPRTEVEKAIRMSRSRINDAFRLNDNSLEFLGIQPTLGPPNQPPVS

B1: SARS-CoV S1 (residues 19–713), Fc-tagged fusion protein (Fc fusion)
chain: not shown
With B1, binding was put at a Kd of 87.1 nM.

The Kd is the concentration at which binding is half-saturated.

Values taken from article PMC2886958 (The Journal of General Virology, 2008).
